Measurements published in publication PMC12058526.

Target: human endogenous fatty acid synthase (FASN) (human) (UniProt P49327)
Test: cryo-EM structure; purified endogenous FASN at 0.5-1.0 mg/ml in TBS buffer, alone or incubated 30 min with 1 mM orlistat or 3 mM 1,3-DBP; C2 symmetry applied; condensing and modifying wings refined separately

human endogenous fatty acid synthase (FASN), P49327 1-2511
stoichiometry N: 2
